Reference: US8106168B2, “Metalloproteinase binding proteins” (Dyax Corp., priority 2005, dated 2012)
One block for each molecule: values may come before it.

Target: MMP-14 (Homo sapiens, UniProt P50281)
Test: Selection and phage ELISA screening of anti-MMP-14 Fabs
Assay type: binding
Details: Fab from FAB310 phage display library
Experimental: Strategy I: A 100-fold excess of the FAB310 library (e.g., an amount of the library that should contain 100 copies of each library member) was depleted of streptavidin-binding antibodies by incubating the library with 200 μL of streptavidin beads for 1 hour at room temperature (RT) with rotation. 500 nM of biotinylated MMP-14 was coupled to streptavidin beads by incubation with 100 μL of streptavidin beads. The MMP-14 beads were then incubated with the streptavidin-depleted library for 1 hour at RT with rotation. The beads were then rinsed three times with 2% MTRIS/0.1% Tween, transferred to a fresh tube and washed an additional three times with 2% MTRIS/0.1% Tween, and transferred to a fresh tube and washed a final time with Round 1 TRIS buffer (50 mM TRIS; 50 mM CaCl2; 150 mM NaCl, pH 7.5).
MMP-14 binding antibodies were eluted from the beads by re-suspension in 1 mL 2% MTRIS containing 2.5 μM TIMP-2 and incubation for 1 hour at RT with rotation. The beads were then washed three times with 2% MTRIS/0.1% Tween, transferred to a fresh tube and washed three times with TRIS/0.1% Tween, and transferred to a fresh tube and washed a final time with TRIS. 1 mL output was used for infection of 9 mL TG1 bacteria (grown to OD600=0.5). The beads were further eluted by suspension in 1 mL 100 mM TEA for 10 minutes. The supernatant was neutralized with 500 μl TRIS/HCl pH 7.5. 1 mL of the second elution was used for infection of 9 mL TG1 bacteria (grown to OD600=0.5).
Two additional rounds of selection were carried out under the same conditions as the first round, except that the streptavidin beads were loaded with 100 nM biotinylated MMP-14 and the number of washes were doubled (6 times with 2% MTRIS/0.1% Tween, 6 times with TRIS/0.1% Tween and 2 times with TRIS), and Round 2/3 Tris buffer (50 mM TRIS; 5 mM CaCl2; 150 mM NaCl pH=7.5) was used for incubation and wash.
TIMP-2 was coupled to carboxylic beads, then complexed with a combination of biotinylated MMP-14 (500 nM each). The complexed beads were incubated with a 100 fold excess of FAB310 library that had been previously depleted by incubation with streptavidin beads and carboxylic beads. Elution/washing was carried out as for Strategy I.
Two additional rounds of selection were carried out, essentially as described for Strategy I, except that only 100 nM of each of MMP-14 were used in the bead complexes.
384-well plates were coated with biotinylated BSA (2 μg/ml in 50 mM TRIS; 5 mM CaCl2; 150 mM NaCl, pH 7.5), then washed 3 times with 50 mM TRIS; 5 mM CaCl2; 150 mM NaCl, pH 7.5; 0.1% Tween. Streptavidin was captured on the coated plates by incubation with 10 μg/mL streptavidin in 50 mM TRIS; 5 mM CaCl2; 150 mM NaCl pH 7.5; 0.5% Gelatin, followed by a wash with 50 mM TRIS; 5 mM CaCl2; 150 mM NaCl pH=7.5; 0.1% Tween. On the day the assay was to be performed, biotinylated MMP-14 (1 μg/ml) was captured in 50 mM TRIS; 5 mM CaCl2; 150 mM NaCl, pH 7.5.
95 clones were picked from each of Round 2 and Round 3 of each selection strategy, producing 12 masterplates. ELISA was run on the MiniTrak-5 deck according to SOP.

bind to human MMP-14: bind to human MMP-14
B1: M0039-D10: Fab that binds human MMP-14; DNA LV SEQ ID NO: 72, HV SEQ ID NO: 73 (antibody, V domains shown)
VL: QDIQMTQSPDTVSFSPGERASLSCRASQSVRSDLAWYQQKPGQAPRLLIYGASNRATGIPVRFSGSGSGTDFTLTISRLEPEDFAVYYCQQYGSSPLFTFGPGTKVDIK
VH: EVQLLESGGGLVQPGGSLRLSCAASGFTFSMYNMAWVRQAPGKGLEWVSWIYSSGGLTLYADSVKGRFTISRDNSKNTLYLQMNSLRAEDTAVYYCAKGSNTYYFDASGLGAFNMWGQGTMVTVSS
modifications: Synthetically generated oligonucleotide

bind to human MMP-14: bind to human MMP-14
B2: M0040-D08: Fab that binds human MMP-14; DNA LV SEQ ID NO: 94, HV SEQ ID NO: 95 (antibody, V domains shown)
VL: QSALTQSPSASASLGSSVKLTCTLASEHSGYIIAWHQQQPGKAPRFLMKLDGTGNFNKGSGVPDRFSGYSSGADRYLTISNLQSEDEADYYCETWDSTTLWVFGGGTKLTVL
VH: EVQLLESGGGLVQPGGSLRLSCAASGFTFSHYGMTWVRQAPGKGLEWVSSIVPSGGYTAYADSVKGRFTISRDNSKNTLYLQMNSLRAEDTAVYYCTTGLSSSGTRWFDAWGQGTLVTVSS
modifications: Synthetically generated oligonucleotide

bind to human MMP-14: bind to human MMP-14
B4: M0040-C10: Fab that binds human MMP-14; DNA LV SEQ ID NO: 92, HV SEQ ID NO: 93 (antibody, V domains shown)
VL: QDIQMTQSPATLSASVGDRVTITCRASQTISTYLNWYQHKPGKAPELLIYAASSLQSGVPSRFSGSGSGTDFTLRISSLQPEDFATYYCQQSYTTPWTFGQGTKVEIK
VH: EVQLLESGGGLVQPGGSLRLSCAASGFTFSRYMMVWVRQAPGKGLEWVSSIVSSGGKTWYADSVKGRFTISRDNSKNTLYLQMNSLRAEDTAMYYCARWDWGPFDYWGQGTLVTVSS
modifications: Synthetically generated oligonucleotide

bind to human MMP-14: bind to human MMP-14
B5: M0040-B06: Fab that binds human MMP-14; DNA LV SEQ ID NO: 88, HV SEQ ID NO: 89 (antibody, V domains shown)
VL: QYELTQPPSASGTPGQRVTISCSGSSSNIGRNYVYWYQQVPGTAPKLLIYSNNQRPSGVPDRFSGSKSGTSASLVISGLRSEDEADYYCAAWDASLRGVFGGGTKLTVL
VH: EVQLLESGGGLVQPGGSLRLSCAASGFTFSVYPMVWVRQAPGKGLEWVSYISPSGGFTFYADSVKGRFTISRDNSKNTLYLQMNSLRAEDTAVYYCARVPGGSRQDFDIWGQGTMVTVSS
modifications: Synthetically generated oligonucleotide

bind to human MMP-14: bind to human MMP-14
B6: M0039-G07: Fab that binds human MMP-14; DNA LV SEQ ID NO: 76, HV SEQ ID NO: 77 (antibody, V domains shown)
VL: QDIQMTQSPGTLSLSPGERATLSCRASQSVNSRFLAWYQQKPGQAPRLLIYSTSTRATGIPDRFSGSGSGTDFTLTISRLEPEDFAVYYCQRYGSSPTWTFGQGTKVEIK
VH: EVQLLESGGGLVQPGGSLRLSCAASGFTFSRYVMDWVRQAPGKGLEWVSRISPSGGHTDYADSVKGRFTISRDNSKNTLYLQMNSLRAEDTAVYYCARETVRGVYFDYWGQGTLVTVSS
modifications: Synthetically generated oligonucleotide

bind to human MMP-14: bind to human MMP-14
B8: M0039-G05: Fab that binds human MMP-14; DNA LV SEQ ID NO: 74, HV SEQ ID NO: 75 (antibody, V domains shown)
VL: QDIQMTQSPSFLSASIGDRVTITCRASQGINTFLAWYQQKPGIAPKLLIYAASTLQSGVPSRFSGSGSGTEFTLTISSLQPEDFATYYCQQLNGYRSFGQGTRLEMK
VH: EVQLLESGGGLVQPGGSLRLSCAASGFTFSNYEMGWVRQAPGKGLEWVSWIYSSGGYTSYADSVKGRFTISRDNSKNTLYLQMNSLRAEDTATYYCARDPYYYDSSGYYYYYYYYMDVWGKGTTVTVSS
modifications: Synthetically generated oligonucleotide

bind to human MMP-14: bind to human MMP-14
B12: M0040-A03: Fab that binds human MMP-14; DNA LV SEQ ID NO: 80, HV SEQ ID NO: 81 (antibody, V domains shown)
VL: QDIQMTQSPSFVSASVGDRVTISCRASHNINTWLAWYQQKPGKAPNLLIYSASNLQGGVPSRFSGSGSGTDFTLTISSLQPGDFATYYCQQASSFPITFGQGTRLEIK
VH: EVQLLESGGGLVQPGGSLRLSCAASGFTFSNYMMIWVRQAPGKGLEWVSWISPSGGYTFYADSVKGRFTISRDNSKNTLYLQMNSLRAEDTAVYYCARGYYDILTGMVGGGAFDIWGQGTTVTVSS
modifications: Synthetically generated oligonucleotide

More lines, now with the values behind:

B3: M0030-D08: Fab that binds human MMP-14; DNA LV SEQ ID NO: 8, HV SEQ ID NO: 9 (antibody, V domains shown)
VH: EVQLLESGGGLVQPGGSLRLSCAASGFTFSIYQMYWVRQAPGKGLEWVSSIVPSGGLTKYADSVKGRFTISRDNSKNTLYLQMNSLRAEDTAVYYCARERLRYFDWSDRVGESGDYWGQGTLVTVSS
VL: QDIQMTQSPSSLSASVGDRVTMTCRAGQNIKSYLNWYQQKPGKAPQVLIYAASTLQSGVSSRFRGSGSGTHFTLTISDLQPGDSATYYCQQSFSTPRSFGQGTSWRS
bind to human MMP-14: bind to human MMP-14

B7: M0038-H06: Fab that binds human MMP-14; DNA LV SEQ ID NO: 66, HV SEQ ID NO: 67 (antibody, V domains shown)
VL: QDIQMTQSPGTLSLSPGEGATLSCRASQIINPFYVAWYQQRPGQAPRLLIYASSRRAGGIPDRFSGSASGTDFTLTISRLEPEDFAVYYCQYFYNSMWTFGQGAKVEIR
VH: EVQLLESGGGLVQPGGSLRLSCAASGFTFSWYNMTWVRQAPGKGLEWVSRISPSGGDTFYADSVKGRFTISRDNSKNTLYLQMNSLRAEDTAVYYCARAAIAPRPYGMDVWGQGTTVTVSS
modifications: Synthetically generated oligonucleotide
bind to human MMP-14: bind to human MMP-14

B9: M0039-B07: Fab that binds human MMP-14; DNA LV SEQ ID NO: 68, HV SEQ ID NO: 69 (antibody, V domains shown)
VL: QDIQMTQSPLSLSASVGDRVTITCRASQGISNYLAWYQQKPGKVPKLLIYAASTLQSGVPSRFSGSGSGTDFTLTISSLQPEDVATYYCQKYNSARLTFGGGTKVEIK
VH: EVQLLESGGGLVQPGGSLRLSCAASGFTFSLYPMLWVRQAPGKGLEWVSGISPSGGQTFYADSVKGRFTISRDNSKNTLYLQMNSLRAEDTAVYYCARMAYYSGYFDLWGRGTLVTVSS
modifications: Synthetically generated oligonucleotide
bind to human MMP-14: bind to human MMP-14

B10: M0038-E12: Fab that binds human MMP-14; DNA LV SEQ ID NO: 60, HV SEQ ID NO: 61 (antibody, V domains shown)
VL: QDIQMTQSPSSLSASVGDSVTITCRASQNINSYLNWYQQKPGKAPKLLIYVASNLQRGVPSRFGGSGSGTDFTLTITSLQPEDFATYSCQQTYSTPLTFGGGTKVEIK
VH: EVQLLESGGGLVQPGGSLRLSCAASGFTFSKYWMMWVRQAPGKGLEWVSVIYPSGGITYYADSVKGRFTISRDNSKNTLYLQMNSLRAEDTAVYYCARLPSWGFDALDIWGQGTMVTVSS
modifications: Synthetically generated oligonucleotide
bind to human MMP-14: bind to human MMP-14

B11: M0039-D02: Fab that binds human MMP-14; DNA LV SEQ ID NO: 70, HV SEQ ID NO: 71 (protein)
chain 1: QDIQMTQSPSSLSASVGDRVTITCRASQSISSYLNWYQQKPGKAPKLLIYDASNLETGVPSRFSGSGSGTDFTFTISSLQPEDIATYYCQQFDDLPLTFAGGTKVELKRT
chain 2: EVQLLESGGGLVQPGGSLRLSCAASGFTFSLYVMIWVRQAPGKGLEWVSGIYSSGGDTYYADSVKGRFTISRDNSKNTLYLQMNSLRAEDTAVYYCARGQQLGGGAFDIWGQGTMVTVSS
modifications: Synthetically generated oligonucleotide
bind to human MMP-14: bind to human MMP-14
